Common to all, as to test: EMSA
In general terms: A gel shift assay detects complexes by their altered migration in electrophoresis.

For data set [1], the target named is T1, A1 R734E;L2 RNA-editing ligase (full length, mature) (Trypanosoma brucei;Trypanosoma brucei, UniProt Q95W15;P86925 196-762;21-416, R734E|).
T1 sequence 1: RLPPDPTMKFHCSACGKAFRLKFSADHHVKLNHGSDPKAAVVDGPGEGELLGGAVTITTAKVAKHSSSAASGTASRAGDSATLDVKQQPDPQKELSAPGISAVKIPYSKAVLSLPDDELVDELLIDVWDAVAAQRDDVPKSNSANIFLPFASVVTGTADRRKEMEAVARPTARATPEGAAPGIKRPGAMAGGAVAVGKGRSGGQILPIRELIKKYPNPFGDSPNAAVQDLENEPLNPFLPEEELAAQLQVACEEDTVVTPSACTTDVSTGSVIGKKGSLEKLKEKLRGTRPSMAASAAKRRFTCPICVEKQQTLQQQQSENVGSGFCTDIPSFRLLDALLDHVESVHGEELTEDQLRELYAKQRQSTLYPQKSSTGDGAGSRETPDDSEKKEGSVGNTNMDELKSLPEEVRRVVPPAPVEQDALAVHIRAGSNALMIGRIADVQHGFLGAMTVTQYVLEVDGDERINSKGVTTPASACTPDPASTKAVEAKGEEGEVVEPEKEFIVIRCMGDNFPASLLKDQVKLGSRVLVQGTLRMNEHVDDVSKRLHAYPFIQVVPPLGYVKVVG
T1 sequence 2: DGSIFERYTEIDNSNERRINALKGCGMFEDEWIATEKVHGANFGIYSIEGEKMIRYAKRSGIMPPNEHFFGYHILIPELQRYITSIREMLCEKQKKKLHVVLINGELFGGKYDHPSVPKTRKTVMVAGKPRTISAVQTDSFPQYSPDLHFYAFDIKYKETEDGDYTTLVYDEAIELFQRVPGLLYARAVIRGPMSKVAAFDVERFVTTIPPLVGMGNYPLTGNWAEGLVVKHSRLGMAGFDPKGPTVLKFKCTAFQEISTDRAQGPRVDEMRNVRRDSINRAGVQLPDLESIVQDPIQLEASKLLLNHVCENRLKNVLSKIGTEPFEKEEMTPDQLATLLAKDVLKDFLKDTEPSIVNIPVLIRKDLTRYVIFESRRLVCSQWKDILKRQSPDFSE

In data set [2] the target is T2, A1 R731E;L2 RNA-editing ligase (full length, mature) (Trypanosoma brucei;Trypanosoma brucei, UniProt Q95W15;P86925 196-762;21-416, R731E|).
T2 sequence 1: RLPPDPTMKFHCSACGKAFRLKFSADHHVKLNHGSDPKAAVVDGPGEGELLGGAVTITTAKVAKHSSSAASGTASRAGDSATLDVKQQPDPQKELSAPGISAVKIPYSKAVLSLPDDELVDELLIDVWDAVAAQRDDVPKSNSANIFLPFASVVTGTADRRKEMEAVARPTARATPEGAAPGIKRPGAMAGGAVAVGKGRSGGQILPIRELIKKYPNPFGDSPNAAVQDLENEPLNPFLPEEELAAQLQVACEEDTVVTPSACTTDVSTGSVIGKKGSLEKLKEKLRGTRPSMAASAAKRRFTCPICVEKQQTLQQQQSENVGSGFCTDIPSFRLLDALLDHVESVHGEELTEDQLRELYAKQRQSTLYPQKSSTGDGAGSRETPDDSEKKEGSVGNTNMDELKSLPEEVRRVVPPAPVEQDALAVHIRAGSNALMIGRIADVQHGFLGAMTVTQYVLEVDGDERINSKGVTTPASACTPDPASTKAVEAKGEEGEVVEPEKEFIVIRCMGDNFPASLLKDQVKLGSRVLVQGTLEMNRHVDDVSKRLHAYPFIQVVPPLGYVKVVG
T2 sequence 2: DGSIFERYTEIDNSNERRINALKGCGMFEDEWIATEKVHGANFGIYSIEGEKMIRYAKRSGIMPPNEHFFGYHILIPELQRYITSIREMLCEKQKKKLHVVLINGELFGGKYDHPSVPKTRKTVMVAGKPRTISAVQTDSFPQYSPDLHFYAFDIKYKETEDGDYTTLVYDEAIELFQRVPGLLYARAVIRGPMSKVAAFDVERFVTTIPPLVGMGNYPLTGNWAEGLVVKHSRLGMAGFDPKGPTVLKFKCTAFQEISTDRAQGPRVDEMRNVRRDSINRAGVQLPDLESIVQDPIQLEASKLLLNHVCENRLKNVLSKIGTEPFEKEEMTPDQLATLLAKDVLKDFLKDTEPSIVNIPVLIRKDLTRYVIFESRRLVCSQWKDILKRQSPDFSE

For data set [3], the target named is T3, A1 R703E;L2 RNA-editing ligase (full length, mature) (Trypanosoma brucei;Trypanosoma brucei, UniProt Q95W15;P86925 196-762;21-416, R703E|).
T3 sequence 1: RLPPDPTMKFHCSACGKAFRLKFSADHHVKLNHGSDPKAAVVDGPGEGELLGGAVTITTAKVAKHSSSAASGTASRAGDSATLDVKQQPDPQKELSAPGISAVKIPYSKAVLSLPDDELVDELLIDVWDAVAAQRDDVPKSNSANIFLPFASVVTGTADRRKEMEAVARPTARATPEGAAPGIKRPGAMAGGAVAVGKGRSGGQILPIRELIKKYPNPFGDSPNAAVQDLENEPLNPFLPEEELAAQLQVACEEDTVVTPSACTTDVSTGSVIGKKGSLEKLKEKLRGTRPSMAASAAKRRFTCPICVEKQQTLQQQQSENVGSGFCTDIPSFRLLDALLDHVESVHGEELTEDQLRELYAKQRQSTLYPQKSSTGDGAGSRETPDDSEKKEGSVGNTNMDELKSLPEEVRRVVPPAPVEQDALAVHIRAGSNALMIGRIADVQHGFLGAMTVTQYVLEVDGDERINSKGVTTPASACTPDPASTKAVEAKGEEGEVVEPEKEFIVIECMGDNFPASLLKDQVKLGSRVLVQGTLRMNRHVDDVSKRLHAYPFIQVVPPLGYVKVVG
T3 sequence 2: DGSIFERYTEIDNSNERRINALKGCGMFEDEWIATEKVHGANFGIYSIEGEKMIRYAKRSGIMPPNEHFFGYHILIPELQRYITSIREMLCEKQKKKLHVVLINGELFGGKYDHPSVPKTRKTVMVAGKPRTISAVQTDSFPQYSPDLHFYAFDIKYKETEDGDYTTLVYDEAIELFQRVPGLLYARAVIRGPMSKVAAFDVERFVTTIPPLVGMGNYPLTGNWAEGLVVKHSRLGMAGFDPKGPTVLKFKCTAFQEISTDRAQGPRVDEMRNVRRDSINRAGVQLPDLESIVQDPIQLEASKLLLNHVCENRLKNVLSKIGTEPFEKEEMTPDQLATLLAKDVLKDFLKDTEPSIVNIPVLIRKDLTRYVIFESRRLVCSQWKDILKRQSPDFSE

The target in data set [4] is T4, A1Δ (L23 deletion);L2 RNA-editing ligase (full length, mature) (Trypanosoma brucei;Trypanosoma brucei, UniProt Q95W15;P86925 196-657+=GASG+696-762;21-416, internal_change|).
T4 sequence 1: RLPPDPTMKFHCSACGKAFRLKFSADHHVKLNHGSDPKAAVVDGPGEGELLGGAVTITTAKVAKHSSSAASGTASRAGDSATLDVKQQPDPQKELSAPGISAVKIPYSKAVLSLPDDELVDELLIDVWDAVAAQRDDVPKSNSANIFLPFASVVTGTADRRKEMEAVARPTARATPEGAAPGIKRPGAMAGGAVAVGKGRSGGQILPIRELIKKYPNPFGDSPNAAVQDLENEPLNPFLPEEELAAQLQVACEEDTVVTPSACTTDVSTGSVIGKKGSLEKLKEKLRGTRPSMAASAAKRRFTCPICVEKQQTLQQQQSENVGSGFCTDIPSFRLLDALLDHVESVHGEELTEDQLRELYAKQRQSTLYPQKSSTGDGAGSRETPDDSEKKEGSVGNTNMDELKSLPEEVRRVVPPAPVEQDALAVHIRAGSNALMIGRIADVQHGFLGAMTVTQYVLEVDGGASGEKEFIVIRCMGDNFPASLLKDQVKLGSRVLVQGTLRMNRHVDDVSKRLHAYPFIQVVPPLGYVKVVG
T4 sequence 2: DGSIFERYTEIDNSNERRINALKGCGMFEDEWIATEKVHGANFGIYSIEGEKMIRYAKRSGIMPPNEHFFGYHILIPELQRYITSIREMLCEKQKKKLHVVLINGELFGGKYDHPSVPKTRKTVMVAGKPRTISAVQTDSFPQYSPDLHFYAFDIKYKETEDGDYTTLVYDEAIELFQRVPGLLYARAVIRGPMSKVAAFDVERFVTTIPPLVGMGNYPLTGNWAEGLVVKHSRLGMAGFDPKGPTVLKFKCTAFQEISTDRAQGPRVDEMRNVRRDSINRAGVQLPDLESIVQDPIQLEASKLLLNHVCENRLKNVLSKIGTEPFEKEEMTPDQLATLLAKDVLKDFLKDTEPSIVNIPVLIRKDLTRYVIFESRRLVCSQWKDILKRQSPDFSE

Data set [5] addresses T5, A1 (full length, mature);L2 RNA-editing ligase (full length, mature) (Trypanosoma brucei;Trypanosoma brucei, UniProt Q95W15;P86925 196-762;21-416, |).
T5 sequence 1: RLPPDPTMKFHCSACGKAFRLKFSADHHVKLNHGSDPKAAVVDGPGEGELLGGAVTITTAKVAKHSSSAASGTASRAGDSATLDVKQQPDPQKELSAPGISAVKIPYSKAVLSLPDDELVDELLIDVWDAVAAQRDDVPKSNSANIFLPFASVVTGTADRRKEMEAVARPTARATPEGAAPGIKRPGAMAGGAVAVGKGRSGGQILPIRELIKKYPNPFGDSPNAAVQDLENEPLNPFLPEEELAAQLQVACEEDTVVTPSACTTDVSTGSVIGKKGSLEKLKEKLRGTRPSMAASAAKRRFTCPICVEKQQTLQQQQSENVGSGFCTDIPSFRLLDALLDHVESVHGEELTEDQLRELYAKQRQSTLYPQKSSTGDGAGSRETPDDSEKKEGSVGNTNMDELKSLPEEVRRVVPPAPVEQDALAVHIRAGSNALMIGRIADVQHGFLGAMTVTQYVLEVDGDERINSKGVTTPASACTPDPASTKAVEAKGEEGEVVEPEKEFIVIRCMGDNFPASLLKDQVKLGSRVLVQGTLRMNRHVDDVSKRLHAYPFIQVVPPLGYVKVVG
T5 sequence 2: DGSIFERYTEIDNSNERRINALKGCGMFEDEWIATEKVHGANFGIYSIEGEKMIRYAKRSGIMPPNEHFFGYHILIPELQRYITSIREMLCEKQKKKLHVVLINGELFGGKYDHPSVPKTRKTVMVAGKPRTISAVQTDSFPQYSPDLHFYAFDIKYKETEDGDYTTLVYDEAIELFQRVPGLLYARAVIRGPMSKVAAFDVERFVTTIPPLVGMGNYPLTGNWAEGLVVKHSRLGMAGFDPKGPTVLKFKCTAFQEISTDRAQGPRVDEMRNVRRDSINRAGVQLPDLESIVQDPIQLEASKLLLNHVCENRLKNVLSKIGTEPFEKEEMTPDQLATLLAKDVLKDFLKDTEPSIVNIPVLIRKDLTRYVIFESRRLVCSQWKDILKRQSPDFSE

Data set [6] addresses T6, A1 L2BD;L2 RNA-editing ligase (full length, mature) (Trypanosoma brucei;Trypanosoma brucei, UniProt Q95W15;P86925 196-331;21-416, |).
T6 sequence 1: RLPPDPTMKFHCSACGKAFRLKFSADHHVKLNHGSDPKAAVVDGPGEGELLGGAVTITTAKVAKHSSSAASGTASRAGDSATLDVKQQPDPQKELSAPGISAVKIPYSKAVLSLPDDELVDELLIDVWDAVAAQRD
T6 sequence 2: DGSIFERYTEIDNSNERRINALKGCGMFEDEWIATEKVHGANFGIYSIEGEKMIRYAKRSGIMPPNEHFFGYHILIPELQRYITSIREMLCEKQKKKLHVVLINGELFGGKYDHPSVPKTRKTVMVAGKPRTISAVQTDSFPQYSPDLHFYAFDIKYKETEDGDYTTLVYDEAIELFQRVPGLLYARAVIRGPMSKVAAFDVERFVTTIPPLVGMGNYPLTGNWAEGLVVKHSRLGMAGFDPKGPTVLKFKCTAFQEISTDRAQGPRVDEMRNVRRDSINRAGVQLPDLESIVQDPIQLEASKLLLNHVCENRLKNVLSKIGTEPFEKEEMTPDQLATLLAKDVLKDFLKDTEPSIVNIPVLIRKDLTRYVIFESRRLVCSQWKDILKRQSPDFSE

In data set [7] the target is T7, A1 (full length, mature);L2 A1BD (Trypanosoma brucei;Trypanosoma brucei, UniProt Q95W15;P86925 196-762;308-416, |).
T7 sequence 1: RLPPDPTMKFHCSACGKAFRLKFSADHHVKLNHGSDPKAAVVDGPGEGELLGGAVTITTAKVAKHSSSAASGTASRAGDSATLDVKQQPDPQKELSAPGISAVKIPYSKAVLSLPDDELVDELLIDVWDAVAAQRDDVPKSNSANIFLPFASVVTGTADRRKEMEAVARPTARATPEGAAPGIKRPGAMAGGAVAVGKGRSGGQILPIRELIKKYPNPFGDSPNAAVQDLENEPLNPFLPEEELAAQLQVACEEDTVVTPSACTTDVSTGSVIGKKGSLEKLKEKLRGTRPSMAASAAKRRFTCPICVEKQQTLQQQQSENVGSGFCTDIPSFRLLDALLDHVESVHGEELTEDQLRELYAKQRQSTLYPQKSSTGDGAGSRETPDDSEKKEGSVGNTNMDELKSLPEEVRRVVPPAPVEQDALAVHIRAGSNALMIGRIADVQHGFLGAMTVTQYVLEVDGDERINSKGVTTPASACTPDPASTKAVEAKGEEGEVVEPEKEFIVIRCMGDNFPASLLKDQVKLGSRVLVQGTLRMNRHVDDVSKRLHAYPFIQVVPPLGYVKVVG
T7 sequence 2: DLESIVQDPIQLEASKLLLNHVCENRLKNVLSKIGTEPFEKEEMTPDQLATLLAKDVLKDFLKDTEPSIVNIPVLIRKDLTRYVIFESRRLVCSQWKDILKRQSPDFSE

Data set [8] has as its target T8, L2 NTase domain (Trypanosoma brucei, UniProt P86925 21-285).
T8 sequence: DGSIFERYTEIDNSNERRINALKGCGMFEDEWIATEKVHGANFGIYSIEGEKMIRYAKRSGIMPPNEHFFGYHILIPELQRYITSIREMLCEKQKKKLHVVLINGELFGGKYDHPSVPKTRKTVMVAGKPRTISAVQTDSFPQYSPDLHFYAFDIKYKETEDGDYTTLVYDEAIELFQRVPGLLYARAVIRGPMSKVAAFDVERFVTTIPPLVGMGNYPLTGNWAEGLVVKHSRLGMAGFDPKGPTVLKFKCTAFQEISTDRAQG

B1: 26-mer nicked dsRNA (dsRNA)
RNA 1: AUGAGACGUAGGUU
RNA 2: UUAUCGGAGUUC
RNA 3: GAACUCCGAUAAAACCUACGUCUCAU
For B1, the binding result in data set [1] is listed as “no binding”; in data set [2] it was “no binding”; in data set [3], “no binding”; in data set [4], “binds”; in data set [5], “binds”; in data set [6], “no binding”. Moreover, the binding result in data set [7] and in data set [8] was “no binding” throughout.

The values are drawn from paper PMC3413154.
